This data set deals with the molecule itself. Kind of data set: SEC; oligomeric state of the protein produced alone, as assessed by size exclusion chromatography.

B1: Escherichia coli TadA (enzyme, E. coli, UniProt P68398 1-167, looked up)
chain: MSEVEFSHEYWMRHALTLAKRAWDEREVPVGAVLVHNNRVIGEGWNRPIGRHDPTAHAEIMALRQGGLVMQNYRLIDATLYVTLEPCVMCAGAMIHSRIGRVVFGARDAKTGAAGSLMDVLHHPGMNHRVEITEGILADECAALLSDFFRMRRQEIKAQKKAQSSTD
notes: tRNA-specific adenosine deaminase TadA, Escherichia coli; also called E. coli TadA; source: produced and purified using the same protocol as for the ADAT complex (E. coli BL21(DE3); Talon, 3C protease, HiTrap Q, Superdex 200)
For the protein B1, the “stoichiometry N” value is 2.

B2: mouse ADAT2 (enzyme, UniProt Q6P6J0 1-191, looked up)
chain: MEEKVESTTTPDGPCVVSVQETEKWMEEAMRMAKEALENIEVPVGCLMVYNNEVVGKGRNEVNQTKNATRHAEMVAIDQVLDWCHQHGQSPSTVFEHTVLYVTVEPCIMCAAALRLMKIPLVVYGCQNERFGGCGSVLNIASADLPNTGRPFQCIPGYRAEEAVELLKTFYKQENPNAPKSKVRKKDCQKS
notes: tRNA-specific adenosine deaminase 2 (ADAT2), mouse, full-length gene amplified from E16.5 cortices, NCBI NM_025748.4; cloned in pnCS, which codes for no fusion tag; residues 11-176 seen in the electron density; the untagged pnCS construct is told only for the co-expression; also called A2; ADAT2/ADAT2 (homodimer, when produced alone); source: E. coli BL21(DE3), co-expressed with ADAT3, purified …
As for B2, the “stoichiometry N” value was found to be 2.

As a reminder, the stoichiometry N is the number of molecules, sites or subunits per partner or assembly.

The values above are taken from PMC8216470, “The structure of the mouse ADAT2/ADAT3 complex reveals the molecular basis for mammalian tRNA wobble adenosine-to-inosine deamination” (Nucleic Acids Research, 2021).
